This passage reports inhibition of trypsin hydrolysis of P-toluenesulphonyl-L-arginine methyl ester (TAME) results from patent publication US6489128.

Values joined by “and” are separate entries in the source; they are usually repeats but may differ in a detail not shown here. Identical values can stand only once.

The target in the test is trypsin. In words: cell-based or functional assay.

With “inter-alpha trypsin inhibitor (ITI), native complex of light chain and heavy chain, affinity purified from human serum (from UniProt P19823 55-702)”, the inhibition of trypsin hydrolysis of P-toluenesulphonyl-L-arginine methyl ester (TAME) was 5 µg and 10 µg.
